Laboratory results from patent publication US20110189729.

Molecular target: lambda integrase Int-h/218 h/218 mutant (substitutions not given) (Bacteriophage lambda) (UniProt P03700)
Assay: cell_activity
Conditions: CHO-DG44

Sequence: GCTGTTACAGGTCACTAATACCATCTATGTAGTTGATTCATATTGTCTGCATATCTTGTGTTTTACAGTATTATCTAGTCTGTTTTTTATCCAAAATCTAATTTATTATATTGATATTTATATCATTTTACGTTTCTCGTTCAGCTTTTTTATACTAAGTTGGCATTATAAAAAAGCATTGCTTATCAATTTGTTGCAACGAACAGGTCACTATCAGTCAAAATATAATCATTATTTGATTTC / GAAATCAAATAATGATTATATTTTGACTGATAGTGACCTGTTCGTTGCAACAAATTGATAAGCAATGCTTTTTTATAATGCCAACTTAGTATAAAAAAGCTGAACGAGAAACGTAAAATGATATAAATATCAATATAATAAATTAGATTTTGGATAAAAAACAGACTAGATAATACTGTAAAACACAAGATATGCAGACAATATGAATCAACTACATAGATGGTATTAGTGACCTGTAACAGC / GCTGTTACAGGTCACTAATACCATCTATGTAGTTGATTCATATTGTCTGCATATCTTGTGTTTTACAGTATTATCTAGTCTGTTTTTTATCCAAAATCTAATTTATTATATTGATATTTATATCATTTTACGTTTCTCGTTCAGCTTTTTTATACTAAGTTGGCATTATAAAAAAGCATTGCTTATCAATTTGTTGCAACGAACAGGTCACTATCAGTCAAAATATAATCATTATTTGATTTC / GAAATCAAATAATGATTATATTTTGACTGATAGTGACCTGTTCGTTGCAACAAATTGATAAGCAATGCTTTTTTATAATGCCAACTTAGTATAAAAAAGCTGAACGAGAAACGTAAAATGATATAAATATCAATATAATAAATTAGATTTTGGATAAAAAACAGACTAGATAATACTGTAAAACACAAGATATGCAGACAATATGAATCAACTACATAGATGGTATTAGTGACCTGTAACAGC [attP.a ; attP.a]
- activity (% fluorescent cells) (attP.a x attP.a, no IHF plasmid): 1.9

Sequence: TCTGTTACAGGTCACTAATACCATCTAAGTAGTTGATTCATAGTGACTGCATATGTTGTGTTTTACAGTATTATGTAGTCTGTTTTTTATGCAAAATCTAATTTAATATATTGATATTTATATCATTTTACGTTTCTCGTTCAGCTTTTTTATACTAAGTTGGCATTATAAAAAAGCATTGCTTATCAATTTGTTGCAACGAACAGGTCACTATCAGTCAAAATAAAATCATTATTTGATTTC / GAAATCAAATAATGATTTTATTTTGACTGATAGTGACCTGTTCGTTGCAACAAATTGATAAGCAATGCTTTTTTATAATGCCAACTTAGTATAAAAAAGCTGAACGAGAAACGTAAAATGATATAAATATCAATATATTAAATTAGATTTTGCATAAAAAACAGACTACATAATACTGTAAAACACAACATATGCAGTCACTATGAATCAACTACTTAGATGGTATTAGTGACCTGTAACAGA / TCTGTTACAGGTCACTAATACCATCTAAGTAGTTGATTCATAGTGACTGCATATGTTGTGTTTTACAGTATTATGTAGTCTGTTTTTTATGCAAAATCTAATTTAATATATTGATATTTATATCATTTTACGTTTCTCGTTCAGCTTTTTTATACTAAGTTGGCATTATAAAAAAGCATTGCTTATCAATTTGTTGCAACGAACAGGTCACTATCAGTCAAAATAAAATCATTATTTGATTTC / GAAATCAAATAATGATTTTATTTTGACTGATAGTGACCTGTTCGTTGCAACAAATTGATAAGCAATGCTTTTTTATAATGCCAACTTAGTATAAAAAAGCTGAACGAGAAACGTAAAATGATATAAATATCAATATATTAAATTAGATTTTGCATAAAAAACAGACTACATAATACTGTAAAACACAACATATGCAGTCACTATGAATCAACTACTTAGATGGTATTAGTGACCTGTAACAGA [attP ; attP]
- activity (% fluorescent cells) (attP x attP, no IHF plasmid): 1.9

Sequence: GCTGTTACAGGTCACTAATACCATCTACGTAGTTGATTCATATTGTCTGCATATCTTGTGTTTTACAGTATTATCTAGTCTGTTTTTTATCCAAAATCTAATTTATTATATTGATATTTATATCATTTTACGTTTCTCGTTCAGCTTTTTTATACTAAGTTGGCATTATAAAAAAGCATTGCTTATCAATTTGTTGCAACGAACAGGTCACTATCAGTCAAAATATAATCATTATTTGATTTC / GAAATCAAATAATGATTATATTTTGACTGATAGTGACCTGTTCGTTGCAACAAATTGATAAGCAATGCTTTTTTATAATGCCAACTTAGTATAAAAAAGCTGAACGAGAAACGTAAAATGATATAAATATCAATATAATAAATTAGATTTTGGATAAAAAACAGACTAGATAATACTGTAAAACACAAGATATGCAGACAATATGAATCAACTACGTAGATGGTATTAGTGACCTGTAACAGC / CTGCTTTTTTATACTAACTTG / CAAGTTAGTATAAAAAAGCAG [attP.b ; attB]
- activity (% fluorescent cells) (attP.b x attB, with IHF, 0.3% without IHF plasmid): 1.2

Sequence: CTGCTTTTTTATACTAAGTTGGCATTATAAAAAAGCATTGCTTATCAATTTGTTGCAACGAACAGGTCACTATCAGTCAAAATATAATCATTATTTGATTTC / GAAATCAAATAATGATTATATTTTGACTGATAGTGACCTGTTCGTTGCAACAAATTGATAAGCAATGCTTTTTTATAATGCCAACTTAGTATAAAAAAGCAG / GCTGTTACAGGTCACTAATACCATCTATGTAGTTGATTCATATTGTCTGCATATCTTGTGTTTTACAGTATTATCTAGTCTGTTTTTTATCCAAAATCTAATTTATTATATTGATATTTATATCATTTTACGTTTCTCGTTCAGCTTTTTTATACTAACTTG / CAAGTTAGTATAAAAAAGCTGAACGAGAAACGTAAAATGATATAAATATCAATATAATAAATTAGATTTTGGATAAAAAACAGACTAGATAATACTGTAAAACACAAGATATGCAGACAATATGAATCAACTACATAGATGGTATTAGTGACCTGTAACAGC [attL.a ; attR.a]
- activity (% fluorescent cells) (attL.a x attR.a, with IHF and XIS, PCR verified): 2.3

Sequence: TCTGTTACAGGTCACTAATACCATCTAAGTAGTTGATTCATAGTGACTGCATATGTTGTGTTTTACAGTATTATGTAGTCTGTTTTTTATGCAAAATCTAATTTAATATATTGATATTTATATCATTTTACGTTTCTCGTTCAGCTTTTTTATACTAAGTTGGCATTATAAAAAAGCATTGCTTATCAATTTGTTGCAACGAACAGGTCACTATCAGTCAAAATAAAATCATTATTTGATTTC / GAAATCAAATAATGATTTTATTTTGACTGATAGTGACCTGTTCGTTGCAACAAATTGATAAGCAATGCTTTTTTATAATGCCAACTTAGTATAAAAAAGCTGAACGAGAAACGTAAAATGATATAAATATCAATATATTAAATTAGATTTTGCATAAAAAACAGACTACATAATACTGTAAAACACAACATATGCAGTCACTATGAATCAACTACTTAGATGGTATTAGTGACCTGTAACAGA / CTGCTTTTTTATACTAACTTG / CAAGTTAGTATAAAAAAGCAG [attP ; attB]
- activity (% fluorescent cells) (attP x attB, with IHF, 1.1% without IHF plasmid): 1.7

Sequence: TCTGTTACAGGTCACTAATACCATCTAAGTAGTTGATTCATAGTGACTGCATATGTTGTGTTTTACAGTATTATGTAGTCTGTTTTTTATGCAAAATCTAATTTAATATATTGATATTTATATCATTTTACGTTTCTCGTTCAGCTTTTTTATACTAAGTTGGCATTATAAAAAAGCATTGCTTATCAATTTGTTGCAACGAACAGGTCACTATCAGTCAAAATAAAATCATTATTTGATTTC / GAAATCAAATAATGATTTTATTTTGACTGATAGTGACCTGTTCGTTGCAACAAATTGATAAGCAATGCTTTTTTATAATGCCAACTTAGTATAAAAAAGCTGAACGAGAAACGTAAAATGATATAAATATCAATATATTAAATTAGATTTTGCATAAAAAACAGACTACATAATACTGTAAAACACAACATATGCAGTCACTATGAATCAACTACTTAGATGGTATTAGTGACCTGTAACAGA / TCTGTTACAGGTCACTAATACCATCTAAGTAGTTGATTCATAGTGACTGCATATGTTGTGTTTTACAGTATTATGTAGTCTGTTTTTTATGCAAAATCTAATTTAATATATTGATATTTATATCATTTTACGTTTCTCGTTCAGCTTTTTTATACTAACTTG / CAAGTTAGTATAAAAAAGCTGAACGAGAAACGTAAAATGATATAAATATCAATATATTAAATTAGATTTTGCATAAAAAACAGACTACATAATACTGTAAAACACAACATATGCAGTCACTATGAATCAACTACTTAGATGGTATTAGTGACCTGTAACAGA [attP ; attR]
- activity (% fluorescent cells) (attP x attR, with IHF and XIS): 2.3

Sequence: CTGCTTTTTTATACTAAGTTGGCATTATAAAAAAGCATTGCTTATCAATTTGTTGCAACGAACAGGTCACTATCAGTCAAAATATAATCATTATTTGATTTC / GAAATCAAATAATGATTATATTTTGACTGATAGTGACCTGTTCGTTGCAACAAATTGATAAGCAATGCTTTTTTATAATGCCAACTTAGTATAAAAAAGCAG / CTGCTTTTTTATACTAACTTG / CAAGTTAGTATAAAAAAGCAG [attL.a ; attB]
- activity (% fluorescent cells) (attL.a x attB, with IHF and XIS, PCR verified): 2
